The record followed here is patent US20040109857A1 (Novartis, published 2004).

What is called Kd is a measure of binding affinity in units of concentration.

Assay [1] deals with chimpanzee CD40 expressed on peripheral blood B cells (chimpanzee) (UniProt K7BNQ5). Put plainly: cell-based or functional assay.
Assay [2] addresses T1, human CD40 (human, UniProt P25942 21-193, limits assumed).
T1 construct: CD40 as used in the BIACore assay; also called CD40 antigen
Put plainly: BIACore assay. Background: SPR reads the build-up and loss of mass on a sensor chip optically.

Assay [3] deals with chimpanzee CD40 expressed on peripheral blood B cells (chimpanzee, UniProt K7BNQ5 21-277). In words: cell-based or functional assay.
chimpanzee CD40 expressed on peripheral blood B cells, sequence (K7BNQ5 entry or part of it limits assumed): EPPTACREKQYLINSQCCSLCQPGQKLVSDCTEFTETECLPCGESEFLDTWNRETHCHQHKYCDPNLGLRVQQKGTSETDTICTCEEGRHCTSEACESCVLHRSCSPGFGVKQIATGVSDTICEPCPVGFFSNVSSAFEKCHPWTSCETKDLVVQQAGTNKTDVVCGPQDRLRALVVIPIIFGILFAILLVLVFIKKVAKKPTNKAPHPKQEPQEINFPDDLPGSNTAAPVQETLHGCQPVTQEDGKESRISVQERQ

T1 sequence (P25942 21-193 limits assumed): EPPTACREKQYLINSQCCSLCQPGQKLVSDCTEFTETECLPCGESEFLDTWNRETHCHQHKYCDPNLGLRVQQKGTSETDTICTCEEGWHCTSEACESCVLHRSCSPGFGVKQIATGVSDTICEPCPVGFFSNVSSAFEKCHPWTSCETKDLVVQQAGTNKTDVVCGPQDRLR
chimpanzee CD40 expressed on peripheral blood B cells (chimpanzee), sequence (K7BNQ5 entry or part of it limits assumed): as the sequence (K7BNQ5 entry or part of it limits assumed) above

“human CD40L expressed on transfected cells (CHO cells; murine L-cells) (from UniProt P29965 1-261) (ligand)” registered a CD40L fold increase of proliferation over huIgG2 at 5 ug/ml; chimp PBMC, 1 sample in assay [1] of 10.2 fold.

B1: 15B8, fully human anti-CD40 monoclonal antibody (antibody, human IgG2, V domains shown)
VH: QVQLQESGGGVVQPGRSLRLSCAASGFTFNNFGIHWVRQAPGKGLEWVAVISYDGSDKYYADSVKGRFTISRDNSKNTLNLQMNSLRAEDTAVYYCARDRRYYYHYYGMDVWGQGTMVTVSS
VL: DIVMTQSPLSLSVAPGQPASISCKSSQSLLESYGETYLYWYLQKPGQPPQLLIYAVFKRFSGVPDRFSGSGSGTDFTLKISRVEAEDVGVYYCMQSMQLPLTFGGGTKVEIK
notes: Human IgG2 isotype with human kappa light chain, from hybridoma 15B8 (Xenomouse); two heavy and two light chains, 1,284 residues in all; In one FACS format it was directly FITC-labelled; also called antagonist anti-CD40 antibody 15B8; 15B8 MAb
For B1, the Kd in assay [2] came out at 3.1 nM. Also, the “15B8 fold increase of proliferation over huIgG2; chimp PBMC, 1 sample, 15B8 5 ug/ml” value in assay [3] is 2.46 fold.
